Source: publication PMC8298264, “Function of cofactor Akirin2 in the regulation of gene expression in model human neutrophil-like HL60 cells” (Bioscience Reports, 2021)

Tested on: human HL60 cells
Assay: SWATH-MS proteomics, differential protein representation, akirin2 KO vs WT HL60 cells
Format: cell-based
Settings: SWATH-MS, akirin2 KO vs WT HL60 cells; over-represented in KO
How it was run: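 WT and akirin2 KO HL60 lysates (150 µg, n=3 biological replicates) were FASP trypsin-digested and desalted. A spectral library was built by IDA from 3 µg digests, then 5 µg per sample went to variable-window SWATH DIA over a 120-min 5–30% acetonitrile gradient. Identifications were accepted at 1% global FDR, with total-area-sum normalization.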

| Molecule | Fold Change | Log (Fold Change) |
| --- | --- | --- |
| PML-RARA-regulated adapter molecule 1 (protein, UniProt Q96QH2 1-670, looked up) PML-RARA-regulated adapter …: MAHHLPAAMESHQDFRSIKAKFQASQPEPSDLPKKPPKPEFGKLKKFSQPELSEHPKKAPLPEFGAVSLKPPPPEVTDLPKKPPPPEVTDLPKKPPPPEVTDLPKKPPPPEVTDLPKKPSKLELSDLSKKFPQLGATPFPRKPLQPEVGEAPLKASLPEPGAPARKPLQPDELSHPARPPSEPKSGAFPRKLWQPEAGEATPRSPQPELSTFPKKPAQPEFNVYPKKPPQPQVGGLPKKSVPQPEFSEAAQTPLWKPQSSEPKRDSSAFPKKASQPPLSDFPKKPPQPELGDLTRTSSEPEVSVLPKRPRPAEFKALSKKPPQPELGGLPRTSSEPEFNSLPRKLLQPERRGPPRKFSQPEPSAVLKRHPQPEFFGDLPRKPPLPSSASESSLPAAVAGFSSRHPLSPGFGAAGTPRWRSGGLVHSGGARPGLRPSHPPRRRPLPPASSLGHPPAKPPLPPGPVDMQSFRRPSAASIDLRRTRSAAGLHFQDRQPEDIPQVPDEIYELYDDVEPRDDSSPSPKGRDEAPSVQQAARRPPQDPALRKEKDPQPQQLPPMDPKLLKQLRKAEKAEREFRKKFKFEGEIVVHTKMMIDPNAKTRRGGGKHLGIRRGEILEVIEFTSNEEMLCRDPKGKYGYVPRTALLPLETEVYDDVDFCDPLENQPLPLGR | 2.265 | 0.355 |
| Alpha-2-HS-glycoprotein (protein, UniProt P02765 19-300; P02765 341-367, looked up) Alpha-2-HS-glycoprotein chain … 1: APHGPGLIYRQPNCDDPETEEAALVAIDYINQNLPWGYKHTLNQIDEVKVWPQQPSGELFEIEIDTLETTCHVLDPTPVARCSVRQLKEHAVEGDCDFQLLKLDGKFSVVYAKCDSSPDSAEDVRKVCQDCPLLAPLNDTRVVHAAKAALAAFNAQNNGSNFQLEEISRAQLVPLPPSTYVEFTVSGTDCVAKEATEAAKCNLLAEKQYGFCKATLSEKLGGAEVAVTCMVFQTQPVSSQPQPEGANEAVPTPVVDPDAPPSPPLGAPGLPPAGSPPDSHVL Alpha-2-HS-glycoprotein chain … 2: TVVQPSVGAAAGPVVPPCPGRIRHFKV | 2.248 | 0.3517 |
| Lysozyme C (protein, UniProt P61626 19-148, looked up) Lysozyme C: KVFERCELARTLKRLGMDGYRGISLANWMCLAKWESGYNTRATNYNAGDRSTDYGIFQINSRYWCNDGKTPGAVNACHLSCSALLQDNIADAVACAKRVVRDPQGIRAWVAWRNRCQNRDVRQYVQGCGV | 2.204 | 0.3432 |
| Serpin B8 (protein, UniProt P50452 1-374, looked up) Serpin B8: MDDLCEANGTFAISLFKILGEEDNSRNVFFSPMSISSALAMVFMGAKGSTAAQMSQALCLYKDGDIHRGFQSLLSEVNRTGTQYLLRTANRLFGEKTCDFLPDFKEYCQKFYQAELEELSFAEDTEECRKHINDWVAEKTEGKISEVLDAGTVDPLTKLVLVNAIYFKGKWNEQFDRKYTRGMLFKTNEEKKTVQMMFKEAKFKMGYADEVHTQVLELPYVEEELSMVILLPDDNTDLAVVEKALTYEKFKAWTNSEKLTKSKVQVFLPRLKLEESYDLEPFLRRLGMIDAFDEAKADFSGMSTEKNVPLSKVAHKCFVEVNEEGTEAAAATAVVRNSRCSRMEPRFCADHPFLFFIRHHKTNCILFCGRFSSP | 2.0658 | 0.3151 |
| UDP-N-acetylglucosamine--peptide N-acetylglucosaminyltransferase 110 kDa subunit (protein, UniProt O15294 2-1046, looked up) UDP-N-acetylglucosamine--pepti …: ASSVGNVADSTEPTKRMLSFQGLAELAHREYQAGDFEAAERHCMQLWRQEPDNTGVLLLLSSIHFQCRRLDRSAHFSTLAIKQNPLLAEAYSNLGNVYKERGQLQEAIEHYRHALRLKPDFIDGYINLAAALVAAGDMEGAVQAYVSALQYNPDLYCVRSDLGNLLKALGRLEEAKACYLKAIETQPNFAVAWSNLGCVFNAQGEIWLAIHHFEKAVTLDPNFLDAYINLGNVLKEARIFDRAVAAYLRALSLSPNHAVVHGNLACVYYEQGLIDLAIDTYRRAIELQPHFPDAYCNLANALKEKGSVAEAEDCYNTALRLCPTHADSLNNLANIKREQGNIEEAVRLYRKALEVFPEFAAAHSNLASVLQQQGKLQEALMHYKEAIRISPTFADAYSNMGNTLKEMQDVQGALQCYTRAIQINPAFADAHSNLASIHKDSGNIPEAIASYRTALKLKPDFPDAYCNLAHCLQIVCDWTDYDERMKKLVSIVADQLEKNRLPSVHPHHSMLYPLSHGFRKAIAERHGNLCLDKINVLHKPPYEHPKDLKLSDGRLRVGYVSSDFGNHPTSHLMQSIPGMHNPDKFEVFCYALSPDDGTNFRVKVMAEANHFIDLSQIPCNGKAADRIHQDGIHILVNMNGYTKGARNELFALRPAPIQAMWLGYPGTSGALFMDYIITDQETSPAEVAEQYSEKLAYMPHTFFIGDHANMFPHLKKKAVIDFKSNGHIYDNRIVLNGIDLKAFLDSLPDVKIVKMKCPDGGDNADSSNTALNMPVIPMNTIAEAVIEMINRGQIQITINGFSISNGLATTQINNKAATGEEVPRTIIVTTRSQYGLPEDAIVYCNFNQLYKIDPSTLQMWANILKRVPNSVLWLLRFPAVGEPNIQQYAQNMGLPQNRIIFSPVAPKEEHVRRGQLADVCLDTPLCNGHTTGMDVLWAGTPMVTMPGETLASRVAASQLTCLGCLELIAKNRQEYEDIAVKLGTDLEYLKKVRGKVWKQRISSPLFNTKQYTMELERLYLQMWEHYAAGNKPDHMIKPVEVTESA | 2.047 | 0.3112 |
| Intraflagellar transport protein 25 homolog (protein, UniProt Q9Y547 1-144, looked up) Intraflagellar transport …: MRKIDLCLSSEGSEVILATSSDEKHPPENIIDGNPETFWTTTGMFPQEFIICFHKHVRIERLVIQSYFVQTLKIEKSTSKEPVDFEQWIEKDLVHTEGQLQNEEIVAHDGSATYLRFIIVSAFDHFASVHSVSAEGTVVSNLSS | 2.042 | 0.31 |
| OCIA domain-containing protein 1 (protein, UniProt Q9NX40 1-245, looked up) OCIA domain-containing …: MNGRADFREPNAEVPRPIPHIGPDYIPTEEERRVFAECNDESFWFRSVPLAATSMLITQGLISKGILSSHPKYGSIPKLILACIMGYFAGKLSYVKTCQEKFKKLENSPLGEALRSGQARRSSPPGHYYQKSKYDSSVSGQSSFVTSPAADNIEMLPHYEPIPFSSSMNESAPTGITDHIVQGPDPNLEESPKRKNITYEELRNKNRESYEVSLTQKTDPSVRPMHERVPKKEVKVNKYGDTWDE | 1.964 | 0.2932 |
| Perilipin-3 (protein, UniProt O60664 2-434, looked up) Perilipin-3: SADGAEADGSTQVTVEEPVQQPSVVDRVASMPLISSTCDMVSAAYASTKESYPHIKTVCDAAEKGVRTLTAAAVSGAQPILSKLEPQIASASEYAHRGLDKLEENLPILQQPTEKVLADTKELVSSKVSGAQEMVSSAKDTVATQLSEAVDATRGAVQSGVDKTKSVVTGGVQSVMGSRLGQMVLSGVDTVLGKSEEWADNHLPLTDAELARIATSLDGFDVASVQQQRQEQSYFVRLGSLSERLRQHAYEHSLGKLRATKQRAQEALLQLSQVLSLMETVKQGVDQKLVEGQEKLHQMWLSWNQKQLQGPEKEPPKPEQVESRALTMFRDIAQQLQATCTSLGSSIQGLPTNVKDQVQQARRQVEDLQATFSSIHSFQDLSSSILAQSRERVASAREALDHMVEYVAQNTPVTWLVGPFAPGITEKAPEEKK | 1.9528 | 0.2907 |
| Galectin-9 (protein, UniProt O00182 1-355, looked up) Galectin-9: MAFSGSQAPYLSPAVPFSGTIQGGLQDGLQITVNGTVLSSSGTRFAVNFQTGFSGNDIAFHFNPRFEDGGYVVCNTRQNGSWGPEERKTHMPFQKGMPFDLCFLVQSSDFKVMVNGILFVQYFHRVPFHRVDTISVNGSVQLSYISFQNPRTVPVQPAFSTVPFSQPVCFPPRPRGRRQKPPGVWPANPAPITQTVIHTVQSAPGQMFSTPAIPPMMYPHPAYPMPFITTILGGLYPSKSILLSGTVLPSAQRFHINLCSGNHIAFHLNPRFDENAVVRNTQIDNSWGSEERSLPRKMPFVRGQSFSVWILCEAHCLKVAVDGQHLFEYYHRLRNLPTINRLEVGGDIQLTHVQT | 1.857 | 0.2687 |
| Copper transport protein ATOX1 (protein, UniProt O00244 1-68, looked up) Copper transport protein ATOX1: MPKHEFSVDMTCGGCAEAVSRVLNKLGGVKYDIDLPNKKVCIESEHSMDTLLATLKKTGKTVSYLGLE | 1.845 | 0.266 |
| Heat shock protein 105 kDa (protein, UniProt Q92598 2-858, looked up) Heat shock protein 105 kDa: SVVGLDVGSQSCYIAVARAGGIETIANEFSDRCTPSVISFGSKNRTIGVAAKNQQITHANNTVSNFKRFHGRAFNDPFIQKEKENLSYDLVPLKNGGVGIKVMYMGEEHLFSVEQITAMLLTKLKETAENSLKKPVTDCVISVPSFFTDAERRSVLDAAQIVGLNCLRLMNDMTAVALNYGIYKQDLPSLDEKPRIVVFVDMGHSAFQVSACAFNKGKLKVLGTAFDPFLGGKNFDEKLVEHFCAEFKTKYKLDAKSKIRALLRLYQECEKLKKLMSSNSTDLPLNIECFMNDKDVSGKMNRSQFEELCAELLQKIEVPLYSLLEQTHLKVEDVSAVEIVGGATRIPAVKERIAKFFGKDISTTLNADEAVARGCALQCAILSPAFKVREFSVTDAVPFPISLIWNHDSEDTEGVHEVFSRNHAAPFSKVLTFLRRGPFELEAFYSDPQGVPYPEAKIGRFVVQNVSAQKDGEKSRVKVKVRVNTHGIFTISTASMVEKVPTEENEMSSEADMECLNQRPPENPDTDKNVQQDNSEAGTQPQVQTDAQQTSQSPPSPELTSEENKIPDADKANEKKVDQPPEAKKPKIKVVNVELPIEANLVWQLGKDLLNMYIETEGKMIMQDKLEKERNDAKNAVEEYVYEFRDKLCGPYEKFICEQDHQNFLRLLTETEDWLYEEGEDQAKQAYVDKLEELMKIGTPVKVRFQEAEERPKMFEELGQRLQHYAKIAADFRNKDEKYNHIDESEMKKVEKSVNEVMEWMNNVMNAQAKKSLDQDPVVRAQEIKTKIKELNNTCEPVVTQPKPKIESPKLERTPNGPNIDKKEEDLEDKNNFGAEPPHQNGECYPNEKNSVNMDLD | 1.783 | 0.2511 |
| Bone marrow proteoglycan (protein, UniProt P13727 17-222, looked up) Bone marrow proteoglycan: LHLRSETSTFETPLGAKTLPEDEETPEQEMEETPCRELEEEEEWGSGSEDASKKDGAVESISVPDMVDKNLTCPEEEDTVKVVGIPGCQTCRYLLVRSLQTFSQAWFTCRRCYRGNLVSIHNFNINYRIQCSVSALNQGQVWIGGRITGSGRCRRFQWVDGSRWNFAYWAAHQPWSRGGHCVALCTRGGHWRRAHCLRRLPFICSY | 6.406 | 0.8066 |
| Resistin (protein, UniProt Q9HD89 19-108, looked up) Resistin: KTLCSMEEAINERIQEVAGSLIFRAISSIGLECQSVTSRGDLATCPRGFAVTGCTCGSACGSWDVRAETTCHCQCAGMDWTGARCCRVQP | 1.774 | 0.2489 |
